Measurements reported in paper PMC2132865.
pKd: −log10 of the molar value.

Tests used:
[1] = molecular target: Fam (endogenous, MDCKII cells) (dog (endogenous in MDCKII)); assay: co-IP
[2] = molecular target: GST-AF-6 (1130–1612 aa); assay: pull-down

| stoichiometry N [1] [AF-6 per Fam] | pKd [2] | Substance |
| --- | --- | --- |
| 0.1 |  | AF-6 (endogenous, MDCKII cells) (natural protein) |
|  | 6.09 | MBP-Fam (1476–1918 aa) (domain or fragment) |
